# Measured values taken from patent US12723255B2, “Herbicide tolerance genes and methods of use thereof” (priority 2014, dated 2026).
# B1: MON-HT1: engineered oxygenase protein, amino acid sequence SEQ ID NO:14 (protein)
# chain: MHAALTPLTNKYRFIDVQPLTGVLGAEITGVDLREPLDDSTWNEILDAFHTYQVIYFPGQAITNEQHIAFSRRFGPVDPVPILKSIEGYPEVQMIRREANESSRFIGDDWHTDSTFLDAPPAAVVMRAIEVPEYGGDTGFLSMYSAWETLSPTMQATIEGLNVVHSATKVFGSLYQATNWRFSNTSVKVMDVDAGDRETVHPLVVTHPVTGRRALYCNQVYCQKIQGMTDAESKSLLQFLYEHATKFDFTCRVRWKKDQVLVWDNLCTMHRAVPDYAGKFRYLTRTTVAGDKPSR
# Columns and labels:
# [1] = enzyme activity assay at 23° C. with purified enzyme; assay type: biochemical; settings: wild-type set at 100%
# Procedure: The enzyme activity of MON-HT protein variants with haloxyfop, fenoxaprop, fluazifop, and dichlorprop as substrates was determined using the enzyme activity assay conducted at 23° C. with purified enzyme. The activity was recorded as the maximum activity as a percentage of the wild-type enzyme's activity, which was set at 100%.
# F1 hybrid maize plants [2] = assay: efficacy field trial for 2,4-D tolerance; assay type: in vivo; settings: scale 0 to 100, with CTP unless label says no CTP; for average injury rating, V4 Growth Stage, 8x 2,4-D / average injury rating, V8 Growth Stage, 8x 2,4-D: 8 lb ae/acre at VE-V2, V4, V8; for average injury rating, V4 Growth Stage, 16x 2,4-D / average injury rating, V8 Growth Stage, 16x 2,4-D: 16 lb ae/acre at VE-V2, V4, V8
# Procedure: (§1) Separate trait efficacy field trials for quizalofop-P and 2,4-D were conducted at two locations cach with F1 hybrid transgenic plants produced by crossing an inbred plant containing maize event MON89034 with an R1 plant containing MON-HT55 (with a CTP), MON-HTI (with or without a CTP), MON-HT2 (with or without a CTP), MON-HT3 (with a CTP), MON-HT4 (with a CTP), MON-HT5 (with a CTP), MON-HT6 (with a CTP), or MON-HT7 (with a CTP). Transgenic F1 hybrid plants containing maize events NK603×MON89034 were used for comparison as a control.
# In the efficacy field trial for 2,4-D tolerance, one of four herbicide treatments was used: (1) 2,4-D amine at 2 lb ac/acre (2×) plus 0.25% v/v non-ionic surfactant (NIS) applied to VE to V2 followed by V4 followed by V8; (2) 2,4-D amine at 4 lb ac/acre (4×) plus 0.25% v/v NIS applied to VE to V2 followed by V4 followed by V8; (3) 2,4-D amine at 8 lb ac/acre (8×) plus 0.25% v/v NIS applied to VE to V2 followed by V4 followed by V8 maize; or (4) 2,4-D amine at 16 lb ac/acre (16×) plus 0.25% v/v NIS applied to VE to V2 followed by V4 followed by V8. Plots were visually rated as above. Tables 14 and 15 show the average injury ratings after herbicide application at V4 or V8 growth stage, respectively.
# F1 hybrid maize plants [3] = assay: efficacy field trial for quizalofop-P tolerance and clethodim sensitivity; assay type: in vivo; settings: scale 0 to 100; for average injury rating, V4 Growth Stage, 4x Quizalofop / average injury rating, V8 Growth Stage, 4x Quizalofop: 0.32 lb ai/acre at VE-V2, V4, V8; for average injury rating, V4 Growth Stage, 4x Quizalofop / average injury rating, V8 Growth Stage, 4x Quizalofop / average injury rating, V4 Growth Stage, 8x Quizalofop / average injury rating, V8 Growth Stage, 8x Quizalofop / average injury rating, V4 Growth Stage, 16x Quizalofop / average injury rating, V8 Growth Stage, 16x Quizalofop: with CTP unless label says no CTP; for average injury rating, V4 Growth Stage, 8x Quizalofop / average injury rating, V8 Growth Stage, 8x Quizalofop: 0.64 lb ai/acre at VE-V2, V4, V8; for average injury rating, V4 Growth Stage, 16x Quizalofop / average injury rating, V8 Growth Stage, 16x Quizalofop: 1.28 lb ai/acre at VE-V2, V4, V8; for average injury rating, V8 Growth Stage, 1x Clethodim: clethodim 0.25 lb ai/acre at V8, volunteer control
# Procedure: as §1
# In the efficacy field trial for quizalofop-P tolerance and clethodim sensitivity, one of four herbicide treatments was used: (1) quizalofop-P (Assure II) at 0.32 lb ai/acre (4×) plus 0.25% v/v non-ionic surfactant (NIS) applied at VE-V2 growth stage followed by the same at V4 growth stage followed by the same at V8 growth stage; (2) quizalofop-P at 0.64 lb ai/acre (8×) plus 0.25% v/v NIS applied at VE to V2 growth stage followed by the same at V4 growth stage followed by the same at V8 growth stage; (3) quizalofop-P at 1.28 lb ai/acre (16×) plus 0.25% v/v NIS applied at VE to V2 growth stage followed by the same at V4 growth stage followed by the same at V8growth stage; or (4) clethodim at 0.25 lb ai/acre (1×) plus 0.25% v/v NIS applied at V8 growth stage. Plots were visually rated 10-14 days after application for crop injury on a scale of 0 to 100with “0” being none and “100” being complete crop destruction. Tables 14 and 15 show the average injury ratings after herbicide application at V4 or V8 growth stage, respectively.
# F1 hybrid maize plants [4] = assay: efficacy field trial with segregating F1 hybrid plants; assay type: in vivo; settings: for % Injury from V4 2,4-D / % Injury from V8 2,4-D: 2,4-D amine 2× at VE-V2 (plus quizalofop-P 0.5×), V4, V8; for % Injury from V4 Quizalofop / % Injury from V8 Quizalofop: quizalofop-P 2× at VE-V2, V4, V8
# Procedure: Ten unique engineered proteins optimized for activity at higher temperatures were selected for maize transformation and analysis in plants. DNA constructs were produced for expressing these engineered proteins with codon usage optimized for monocot expression using methods known to those skilled in the art. Enhancers, promoters, leaders, introns, CTPs, and 3′UTRs were tested in various combinations with the engineered proteins in these DNA constructs. The DNA constructs were used to transform immature maize (LH244) embryos with these vectors using Agrobacterium tumifaciens and standard methods known in the art. Regenerated R0 transgenic plantlets were grown in the green house.
# Transgenic R0 maize plants were screened by the application of quizalofop-P (2×) plus 2,4-D (2×) at 7 to 10 days following transplant into plugs (generally corresponding to V3-V4 growth stage). All constructs tested produced plants containing unique events that passed the RO screen. The R0 plants were selfed to generate R1 homozygous seed and the R0 was also used as the male to cross with inbred plants containing maize event MON89034 to generate segregating F1 hybrid seed for efficacy field trials.
# An efficacy field trial was conducted with segregating F1 hybrid plants, with 50% hemizygous and 50% null for the transgene. Tolerance to quizalofop-P (2×) plus 2,4-D (2×) was assessed using two herbicide application regimens: (1) quizalofop-P (Assure II) at 0.16 lb ai/acre (2×) plus 0.25% v/v non-ionic surfactant (NIS) applied at VE-V2 growth stage followed by the same at V4 growth stage followed by the same at V8 growth stage and (2) 2,4-D amine at 2 lb ae/acre (2×) plus quizalofop-P at 0.04 lb ai/acre (0.5×) plus 0.25% v/v NIS applied at VE-V2 growth stage followed by 2,4-D amine at 2 lb ae/acre (2×) plus 0.25% v/v NIS applied at V4 growth stage followed by the same at V8 growth stage. The 50% of the plants that were null for transgene were removed by the first quizalofop-P application at VE-V2 growth stage. Plots were visually rated 10-14 days after application for crop injury on a scale of 0 to 100 with “0” being none and “100” being complete crop destruction. […] The percentage injury rating with 2× application of 2,4-D at V8 growth stage ranged from a high of 40% to a low of 0. Similarly, the percentage injury rating with 2× application of quizalofop-P at V8 growth stage ranged from a high of 90% to a low of 0. Variation in injury rating between plants expressing the same protein is likely due to variations in construct design or transgene insertion location.
molecule,measurement,setting,value
B1,"maximum activity as a percentage of the wild-type enzyme's activity, Fluazifop",[1],67%
same,"average injury rating, V4 Growth Stage, 2x 2,4-D","F1 hybrid maize plants [2]; 2 lb ae/acre at VE-V2, V4, V8",0.0
same,"average injury rating, V8 Growth Stage, 2x 2,4-D","F1 hybrid maize plants [2]; 2 lb ae/acre at VE-V2, V4, V8",1.3
same,"average injury rating, V8 Growth Stage, 2x 2,4-D","F1 hybrid maize plants [2]; 2 lb ae/acre at VE-V2, V4, V8, listed as MON-HT1 (no CTP)",2.5
same,"average injury rating, V4 Growth Stage, 4x 2,4-D","F1 hybrid maize plants [2]; 4 lb ae/acre at VE-V2, V4, V8",0.0
same,"average injury rating, V8 Growth Stage, 4x 2,4-D","F1 hybrid maize plants [2]; 4 lb ae/acre at VE-V2, V4, V8",1.5
same,"average injury rating, V8 Growth Stage, 4x 2,4-D","F1 hybrid maize plants [2]; 4 lb ae/acre at VE-V2, V4, V8, listed as MON-HT1 (no CTP)",4.0
same,"average injury rating, V4 Growth Stage, 8x 2,4-D",F1 hybrid maize plants [2],5.0
same,"average injury rating, V8 Growth Stage, 8x 2,4-D",F1 hybrid maize plants [2],8.3
same,"average injury rating, V4 Growth Stage, 8x 2,4-D",F1 hybrid maize plants [2]; listed as MON-HT1 (no CTP),5.8
same,"average injury rating, V8 Growth Stage, 8x 2,4-D",F1 hybrid maize plants [2]; listed as MON-HT1 (no CTP),8.8
same,"average injury rating, V4 Growth Stage, 16x 2,4-D",F1 hybrid maize plants [2],6.3
same,"average injury rating, V8 Growth Stage, 16x 2,4-D",F1 hybrid maize plants [2],16.3
same,"average injury rating, V4 Growth Stage, 16x 2,4-D",F1 hybrid maize plants [2]; listed as MON-HT1 (no CTP),12.5
same,"average injury rating, V8 Growth Stage, 16x 2,4-D",F1 hybrid maize plants [2]; listed as MON-HT1 (no CTP),13.8
same,"average injury rating, V4 Growth Stage, 4x Quizalofop",F1 hybrid maize plants [3],0.0
same,"average injury rating, V8 Growth Stage, 4x Quizalofop",F1 hybrid maize plants [3],2.0
same,"average injury rating, V4 Growth Stage, 4x Quizalofop",F1 hybrid maize plants [3]; listed as MON-HT1 (no CTP),5.8
same,"average injury rating, V8 Growth Stage, 4x Quizalofop",F1 hybrid maize plants [3]; listed as MON-HT1 (no CTP),3.3
same,"average injury rating, V4 Growth Stage, 8x Quizalofop",F1 hybrid maize plants [3],0.8
same,"average injury rating, V8 Growth Stage, 8x Quizalofop",F1 hybrid maize plants [3],2.0
same,"average injury rating, V4 Growth Stage, 8x Quizalofop",F1 hybrid maize plants [3]; listed as MON-HT1 (no CTP),11.3
same,"average injury rating, V8 Growth Stage, 8x Quizalofop",F1 hybrid maize plants [3]; listed as MON-HT1 (no CTP),7.5
same,"average injury rating, V4 Growth Stage, 16x Quizalofop",F1 hybrid maize plants [3],4.5
same,"average injury rating, V8 Growth Stage, 16x Quizalofop",F1 hybrid maize plants [3],5.5
same,"average injury rating, V4 Growth Stage, 16x Quizalofop",F1 hybrid maize plants [3]; listed as MON-HT1 (no CTP),18.8
same,"average injury rating, V8 Growth Stage, 16x Quizalofop",F1 hybrid maize plants [3]; listed as MON-HT1 (no CTP),16.3
same,"average injury rating, V8 Growth Stage, 1x Clethodim",F1 hybrid maize plants [3],93.3
same,"average injury rating, V8 Growth Stage, 1x Clethodim",F1 hybrid maize plants [3]; listed as MON-HT1 (no CTP),94.5
same,"% Injury from V4 2,4-D",F1 hybrid maize plants [4]; CTP A,7.5%
same,"% Injury from V8 2,4-D",F1 hybrid maize plants [4]; CTP A,5.83%
same,% Injury from V4 Quizalofop,F1 hybrid maize plants [4]; CTP A,8.33%
same,% Injury from V8 Quizalofop,F1 hybrid maize plants [4]; CTP A,8.33%
same,"% Injury from V4 2,4-D",F1 hybrid maize plants [4]; CTP B,10%
same,"% Injury from V8 2,4-D",F1 hybrid maize plants [4]; CTP B,10%
same,% Injury from V4 Quizalofop,F1 hybrid maize plants [4]; CTP B,7.5%
same,% Injury from V8 Quizalofop,F1 hybrid maize plants [4]; CTP B,8.75%
same,"% Injury from V4 2,4-D",F1 hybrid maize plants [4]; CTP C,14.09%
same,"% Injury from V8 2,4-D",F1 hybrid maize plants [4]; CTP C,11.36%
same,% Injury from V4 Quizalofop,F1 hybrid maize plants [4]; CTP C,0.45%
same,% Injury from V8 Quizalofop,F1 hybrid maize plants [4]; CTP C,0.91%
same,"% Injury from V4 2,4-D",F1 hybrid maize plants [4]; CTP None,12.86%
same,"% Injury from V8 2,4-D",F1 hybrid maize plants [4]; CTP None,10.71%
same,% Injury from V4 Quizalofop,F1 hybrid maize plants [4]; CTP None,7.14%
same,% Injury from V8 Quizalofop,F1 hybrid maize plants [4]; CTP None,7.86%
